# Residue numbers refer to the chain shown, from its start.
# T1: ZFP SBS#1318 (synthetic, UniProt P08047)
# T1 chain: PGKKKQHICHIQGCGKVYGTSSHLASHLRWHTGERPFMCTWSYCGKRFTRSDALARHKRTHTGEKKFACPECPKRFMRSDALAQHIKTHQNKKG
# T2: ZFP SBS#1319 (synthetic)
# T2 chain: T1 chain with T20M, S22H, A25T, S26T
# T3: ZFP SBS#1338 (synthetic)
# T3 chain: T1 chain with T20R, S22D, H23E, A25T, S26R, A55T, R56Q, A81H, A83S, Q84R
# T4: ZFP SBS#1340 (synthetic)
# T4 chain: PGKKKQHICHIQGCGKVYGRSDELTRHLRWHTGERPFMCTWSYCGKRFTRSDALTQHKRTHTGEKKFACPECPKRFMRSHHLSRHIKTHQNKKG
# T5: ZFP SBS#1339 (synthetic)
# T5 chain: T4 chain with A53S, H80D
# T6: ZFP SBS#1341 (synthetic)
# T6 chain: T4 chain with A53S
# T7: ZFP SBS#1335 (synthetic)
# T7 chain: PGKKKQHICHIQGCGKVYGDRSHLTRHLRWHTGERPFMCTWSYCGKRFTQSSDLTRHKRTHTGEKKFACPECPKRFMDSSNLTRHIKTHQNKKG
# T8: ZFP SBS#1328 (synthetic)
# T8 chain: T1 chain with S22G, A25V, S26R, R50Q, D52S, A55T, A83T, Q84T
# T9: ZFP SBS#1327 (synthetic)
# T9 chain: T1 chain with S22G, A25V, S26R, R50T, D52G, A53S, A55T, A83T, Q84T
# T10: ZFP SBS#1325 (synthetic)
# T10 chain: T1 chain with S22G, A25V, S26R, R50T, D52G, A53S, A55T, A83T, Q84K
# T11: ZFP SBS#1326 (synthetic)
# T11 chain: T1 chain with S22G, A25V, S26R, R50Q, D52S, A55T, A83T, Q84K
# T12: ZFP SBS#1347 (synthetic)
# T12 chain: T4 chain with E23A, R26S, R50Q, D52H, A53H, Q56T, H80D, H81N, S83T, R84E
# T13: ZFP SBS#1342 (synthetic)
# T13 chain: T7 chain with D20R, R21S, S22D, H23N, T25R, R26E, Q50R, D78R, S80D, R84E
# T14: ZFP SBS#1343 (synthetic)
# T14 chain: T4 chain with E23N, R26T, S51T, D52S, A53T, Q56R, H80D, H81N, S83T, R84E
# T15: ZFP SBS#1354 (synthetic, UniProt P08047)
# T15 chain: T1 chain with T20K, S21N, S22W, H23K, A25Q, S26A, A53E, A55Q, A83R, Q84E
# T16: ZFP SBS#1353 (synthetic, UniProt P08047)
# T16 chain: T1 chain with T20Q, S22G, A25N, S26Q, A53E, A55Q, A83R, Q84E
# T17: ZFP SBS#1344 (synthetic)
# T17 chain: T7 chain with H23N, Q50D, S51R, D53H, T55A, D78R, S80D, N81T, T83R, R84E
# T18: ZFP SBS#1320 (synthetic)
# T18 chain: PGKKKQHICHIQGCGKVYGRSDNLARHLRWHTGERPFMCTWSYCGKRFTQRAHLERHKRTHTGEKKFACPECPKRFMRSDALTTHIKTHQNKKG
# T19: ZFP SBS#1321 (synthetic)
# T19 chain: T18 chain with S79A, T83M, T84V
# T20: ZFP SBS#1336 (synthetic)
# T20 chain: T7 chain with D20Q, R21S, S22G, T25A, D78R, S80D, N81H, T83A, R84E
# T21: ZFP SBS#1334 (synthetic)
# T21 chain: T4 chain with E23A, T25R, R26E, D52S, A53D, Q56R, H80D, H81D, S83R, R84E
# T22: ZFP SBS#1357 (synthetic)
# T22 chain: T7 chain with D20Q, R21S, H23S, T25V, Q50R, S52D, D53A, R56T, S79R
# T23: ZFP SBS#1358 (synthetic)
# T23 chain: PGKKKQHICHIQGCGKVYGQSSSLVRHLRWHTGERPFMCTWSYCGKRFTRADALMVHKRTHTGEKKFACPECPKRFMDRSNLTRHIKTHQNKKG
# T24: ZFP SBS#1348 (synthetic)
# T24 chain: T4 chain with E23A, R26A, R50Q, S51A, D52A, A53T, Q56T, H80D
# T25: ZFP SBS#1351 (synthetic)
# T25 chain: T4 chain with E23A, T25R, R26E, R50Q, D52H, A53D, Q56K, H80D
# B1: GTGGGAATA (dsDNA)
# DNA 1: GTGGGAATA
# DNA 2: TATTCCCAC
# B2: ATGGTGTGT (dsDNA)
# DNA 1: ATGGTGTGT
# DNA 2: ACACACCAT
# B3: GGGATGGCG (dsDNA)
# DNA 1: GGGATGGCG
# DNA 2: CGCCATCCC
# B4: GACGCTGGC (dsDNA)
# DNA 1: GACGCTGGC
# DNA 2: GCCAGCGTC
# B5: TTGGTTGGT (dsDNA)
# DNA 1: TTGGTTGGT
# DNA 2: ACCAACCAA
# B6: CAGTGAATG (dsDNA)
# DNA 1: CAGTGAATG
# DNA 2: CATTCACTG
# B7: CAGGCGCAG (dsDNA)
# DNA 1: CAGGCGCAG
# DNA 2: CTGCGCCTG
# B8: CTGGCGAGA (dsDNA)
# DNA 1: CTGGCGAGA
# DNA 2: TCTCGCCAG
# B9: GTGTGGGTC (dsDNA)
# DNA 1: GTGTGGGTC
# DNA 2: GACCCACAC
# B10: CCGGGCGAC (dsDNA)
# DNA 1: CCGGGCGAC
# DNA 2: GTCGCCCGG
# B11: GATGTGTGA (dsDNA)
# DNA 1: GATGTGTGA
# DNA 2: TCACACATC
# B12: GCTTTGGCA (dsDNA)
# DNA 1: GCTTTGGCA
# DNA 2: TGCCAAAGC
# B13: TTGGGAGAG (dsDNA)
# DNA 1: TTGGGAGAG
# DNA 2: CTCTCCCAA
# B14: CGGGCTGGA (dsDNA)
# DNA 1: CGGGCTGGA
# DNA 2: TCCAGCCCG
# B15: CCGGCGCTG (dsDNA)
# DNA 1: CCGGCGCTG
# DNA 2: CAGCGCCGG
# B16: GACTTGGTA (dsDNA)
# DNA 1: GACTTGGTA
# DNA 2: TACCAAGTC
# B17: GAGGTGTGA (dsDNA)
# DNA 1: GAGGTGTGA
# DNA 2: TCACACCTC
# B18: GGGTCACTG (dsDNA)
# DNA 1: GGGTCACTG
# DNA 2: CAGTGACCC
# Assays:
# Experiment in all cases: EMSA
# Conditions in all cases: tags: MBP fusion
# [1] = biological target: ZFP SBS#1322 (synthetic)
# Method in brief: (§1)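 Purified ZFP was titrated against labeled double-stranded target (1 nM or lower, at least 10-fold below expected Kd) carrying the natural binding site with flanks. Binding buffer was 10 mM Tris pH 7.5, 100 mM KCl, 1 mM MgCl2, 0.1 mM ZnCl2, 5 mM DTT, 10% glycerol, 0.02% BSA, with equilibration for at least 45 min. Bound and free target were separated on a 10% polyacrylamide gel.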
# [2] = biological target: ZFP SBS#1324 (synthetic)
# Method in brief: as §1
# [3] = biological target: ZFP SBS#1323 (synthetic)
# Method in brief: as §1
# [4] = biological target: T1, ZFP SBS#1318
# Method in brief: as §1
# [5] = biological target: T2, ZFP SBS#1319
# Method in brief: as §1
# [6] = biological target: T3, ZFP SBS#1338
# Method in brief: as §1
# [7] = biological target: T4, ZFP SBS#1340
# Method in brief: as §1
# [8] = biological target: T5, ZFP SBS#1339
# Method in brief: as §1
# [9] = biological target: T6, ZFP SBS#1341
# Method in brief: as §1
# [10] = biological target: T7, ZFP SBS#1335
# Method in brief: as §1
# [11] = biological target: T8, ZFP SBS#1328
# Method in brief: as §1
# [12] = biological target: T9, ZFP SBS#1327
# Method in brief: as §1
# [13] = biological target: T10, ZFP SBS#1325
# Method in brief: as §1
# [14] = biological target: T11, ZFP SBS#1326
# Method in brief: as §1
# [15] = biological target: T12, ZFP SBS#1347
# Method in brief: as §1
# [16] = biological target: ZFP SBS#1350 (synthetic)
# Method in brief: as §1
# [17] = biological target: T13, ZFP SBS#1342
# Method in brief: as §1
# [18] = biological target: T14, ZFP SBS#1343
# Method in brief: as §1
# [19] = biological target: T15, ZFP SBS#1354
# Method in brief: as §1
# [20] = biological target: T16, ZFP SBS#1353
# Method in brief: as §1
# [21] = biological target: ZFP SBS#1352 (synthetic)
# Method in brief: as §1
# [22] = biological target: T17, ZFP SBS#1344
# Method in brief: as §1
# [23] = biological target: ZFP SBS#1346 (synthetic)
# Method in brief: as §1
# [24] = biological target: ZFP SBS#1356 (synthetic)
# Method in brief: as §1
# [25] = biological target: ZFP SBS#1355 (synthetic)
# Method in brief: as §1
# [26] = biological target: T18, ZFP SBS#1320
# Method in brief: as §1
# [27] = biological target: T19, ZFP SBS#1321
# Method in brief: as §1
# [28] = biological target: ZFP SBS#1337 (synthetic)
# Method in brief: as §1
# [29] = biological target: T20, ZFP SBS#1336
# Method in brief: as §1
# [30] = biological target: T21, ZFP SBS#1334
# Method in brief: as §1
# [31] = biological target: T22, ZFP SBS#1357
# Method in brief: as §1
# [32] = biological target: T23, ZFP SBS#1358
# Method in brief: as §1
# [33] = biological target: ZFP SBS#1330 (synthetic)
# Method in brief: as §1
# [34] = biological target: T24, ZFP SBS#1348
# Method in brief: as §1
# [35] = biological target: T25, ZFP SBS#1351
# Method in brief: as §1
# Sequence of ZFP SBS#1350 (synthetic) (chain, as listed by the source): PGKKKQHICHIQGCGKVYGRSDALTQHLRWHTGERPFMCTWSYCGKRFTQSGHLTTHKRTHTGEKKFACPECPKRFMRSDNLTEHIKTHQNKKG
# Sequence of ZFP SBS#1355 (synthetic) (chain, as listed by the source): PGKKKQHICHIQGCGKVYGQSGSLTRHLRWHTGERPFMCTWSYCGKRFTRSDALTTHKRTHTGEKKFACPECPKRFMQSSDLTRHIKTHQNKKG
# Sequence of ZFP SBS#1337 (synthetic) (chain, as listed by the source): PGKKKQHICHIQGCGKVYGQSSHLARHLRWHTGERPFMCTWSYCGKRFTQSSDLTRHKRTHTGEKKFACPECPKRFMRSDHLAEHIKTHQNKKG
# Sequence of ZFP SBS#1356 (synthetic) (chain, as listed by the source): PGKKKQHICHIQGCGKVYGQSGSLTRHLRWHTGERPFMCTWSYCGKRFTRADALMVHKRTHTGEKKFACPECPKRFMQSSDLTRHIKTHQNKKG
# Sequence of ZFP SBS#1322 (synthetic) (chain, as listed by the source): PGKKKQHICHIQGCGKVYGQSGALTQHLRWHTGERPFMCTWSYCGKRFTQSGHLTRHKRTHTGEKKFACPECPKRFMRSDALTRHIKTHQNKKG
# Sequence of ZFP SBS#1352 (synthetic) (chain, as listed by the source): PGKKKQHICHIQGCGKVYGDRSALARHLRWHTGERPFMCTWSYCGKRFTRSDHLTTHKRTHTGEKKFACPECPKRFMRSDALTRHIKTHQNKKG
# Sequence of ZFP SBS#1324 (synthetic) (chain, as listed by the source): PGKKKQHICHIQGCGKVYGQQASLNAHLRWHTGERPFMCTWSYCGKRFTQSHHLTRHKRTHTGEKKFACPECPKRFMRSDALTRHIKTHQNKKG
# Sequence of ZFP SBS#1330 (synthetic) (chain, as listed by the source): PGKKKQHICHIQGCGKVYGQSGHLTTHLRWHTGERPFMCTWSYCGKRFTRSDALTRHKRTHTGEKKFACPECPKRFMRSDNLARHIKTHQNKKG
binder,measurement,setting,value
B1,Kd,[1],0.799 nM
same,Kd,[2],18.5 nM
same,Kd,[3],0.744 nM
B2,Kd,[4],0.048 nM
same,Kd,[5],0.228 nM
B3,Kd,[6],1.04 nM
same,Kd,[7],0.751 nM
same,Kd,[8],0.569 nM
same,Kd,[9],4.1 nM
B4,Kd,[10],1.4 nM
B5,Kd,[11],7.95 nM
same,Kd,[12],0.566 nM
same,Kd,[13],0.306 nM
same,Kd,[14],4.38 nM
B6,Kd,[15],8.23 nM
same,Kd,[16],74.1 nM
B7,Kd,[17],0.68 nM
same,Kd,[18],37 nM
B8,Kd,[19],20.9 nM
same,Kd,[20],56.5 nM
B9,Kd,[21],0.023 nM
B10,Kd,[22],2.28 nM
B11,Kd,[23],0.153 nM
B12,Kd,[24],0.034 nM
same,Kd,[25],0.172 nM
B13,Kd,[26],0.044 nM
same,Kd,[27],0.127 nM
B14,Kd,[28],0.235 nM
same,Kd,[29],1.4 nM
B15,Kd,[30],0.31 nM
B16,Kd,[31],0.032 nM
same,Kd,[32],0.05 nM
B17,Kd,[33],0.175 nM
B18,Kd,[34],2.58 nM
same,Kd,[35],0.234 nM
